Laboratory results: patent publication US11390653B2, “Amino acid-specific binder and selectively identifying an amino acid” (priority 2018, dated 2022)

Key:
[1] = system: W1G2 peptide; type: binding
Experimental: (§1) With regard to surface plasmon resonance (SPR), SPR data was collected by loading a streptavidin chip with the target biotinylated peptides in each of the four channels, and then flowing the protein over the chip at each concentration for 180 seconds before washing with 50 mM Tris-HCl, pH 8.0, 300 mM NaCl, 1 mM DTT, 5% glycerol buffer for 180 seconds. […] The four channels were used such that the negative control peptide (A1G2) was in channel 1, F1G2 in channel 2, W1G2 in channel 3, and Y1G2 in channel 4. The negative control peptide channel was used as a baseline for subtraction, which accommodates both any non-specific binding and refractive index change. A steady state response at each concentration was plotted and fit to calculate the KD, while the resonance units vs. time was used to calculate a koff for each mutant protein with each peptide.
(§2) Regarding characterization of the ClpS mutant protein binding kinetics, for peptide sequencing via some recently proposed methods reagents can bind peptides affixed to a surface. Two A. tumefaciens ClpS2 protein variants (V2, described above, and V1) were expressed and purified from E. coli. […] The binding properties of each variant were analyzed using surface plasmon resonance (SPR).

[2] = system: Leu NAA peptide; assay: yeast/peptide colorimetric pull-down assay; type: binding; details: yeast-displayed protein
Experimental: (§3) Incubation and wash steps were repeated.

[3] = system: Tyr NAA peptide; assay: yeast/peptide colorimetric pull-down assay; type: binding; details: yeast-displayed protein
Experimental: as §3

[4] = system: F1G2 peptide; assay: yeast/peptide colorimetric pull-down assay; type: binding; details: yeast-displayed protein
Experimental: as §3

[5] = biological target: T1, W1G2 peptide (Agrobacterium fabrum, UniProt Q8UD95, E37S/P35C/R36P); assay: flow cytometry of yeast displaying ClpS proteins; type: binding; design: factor Xa cleavage site (N); expressed in transfected cells; host or cells: Saccharomyces cerevisiae EBY100, pCTCON2 library clone; details: yeast-displayed protein
Experimental: After two rounds of MACs selection, the library was sorted by flow cytometry. […] A typical reaction contained 100 μL of cells (containing approximately 10^6 cells), 10 μL of peptide at a concentration between 10 nM to 10 μM, and 25 μL of a master mix containing 2 μL of an anti-myc antibody, 4 μL of the SAPE (streptavidin, R-phycoerythrin conjugate—1 mg/mL) and 19 μL of PBS/BSA for each sample.
Cells were washed with PBS/BSA and sorted using a FACS Aria cytometer and collected in 1 mL of SD-CAA media. The number of cells that bound the peptide improved with each round and were sorted with sequentially lower concentrations of peptide to increase the stringency of the selection. […]
With regard to directed evolution of ClpS, random mutagenesis and screening was used to select proteins with higher affinity binding to the target NAA. In subsequent steps, specific residues were determined from initial screens with a targeted mutagenesis step. […] Using FACS, we assessed the affinity of each mutant for the N-terminal amino acid on the target peptide based on which quadrant the fluorescent signal fell into as shown in FIG. 15. […] If there is also a high fluorescence signal along the x-axis (streptavidin-PE) then the peptide is presumably bound to the protein variant, and the signal will appear in Q2. […]

[6] = thermal stability by intrinsic protein fluorescence; type: physicochemical; details: compared with wild-type and V1
Experimental: The thermal stability of the variants was assessed. Each variant was loaded in 3×PBS at approximately 1 mg/mL concentration in capillary tubes and the intrinsic protein fluorescence recorded at 330 nm and 350 nm while heating the sample over a 35-95° C. at a rate of […].

[7] = system: Y1G2 peptide; assay: SPR, peptide on streptavidin chip, ClpS2 variant protein in solution; type: binding
Experimental: as §1, §2

[8] = system: F1G2 peptide; assay: as above; type: binding; details: for specificity between N-terminal Phe and Trp, in words: from SPR binding data
Experimental: as §1, §2

[9] = biological target: T1, W1G2 peptide; type: binding; design: His6 (N); TEV protease cleavage site (N); made in house; host or cells: BL21 Escherichia coli; details: SPR
Experimental: as §1, §2

[10] = relative specificity factor, ratio of binding affinities

B1: A. tumefaciens ClpS2 [Cys34 Pro35 Ser36] (protein, listed as Escherichia coli)
chain: SDSPVDLKPKPKVKPKLERPKLYKVMLLNDDYTCPSFVTVVLKAVFRMSEDTGRRVMMTAHRFGSAVVVVCERDIAETKAKEATDLGKEAGFPLMFTTEPEE
notes: ClpS2 variant, native residues 34-36 ProArgGlu mutated to CysProSer
For B1, the “KOFF Trp” value ([1]; from SPR dissociation curves) was 0.03 s⁻¹, the “affinity for N-terminal Trp relative to wild-type, in words” value ([1]; in vitro surface binding assays / SPR) was “greater affinity” and the “Selectivity for Trp, Trp/Phe” value [1, 10] was 0.76. For the same molecule, the “Selectivity for Trp, Trp/Trp” value [1, 10] was 1.0, the “Selectivity for Trp, Trp/Tyr” value [1, 10] was 0.08 and the Kd ([1]; steady state, peptide on surface, 0 to 50 μM protein, read-out: KD Trp) was 2800 ± 300 nM. The “binding to Leu” value [2] was “increased affinity”, the “binding affinity to Tyr compared to wild-type” value [3] was “increased binding affinity” and the “affinity for F1G2 peptide compared to wild-type” value [4] was “increased binding affinity”. The “affinity for W1G2 peptide compared to wild-type” value [5] was “improved affinity”, the thermal stability [6] was “not as thermally stable” and the “KOFF Tyr” value ([7]; from SPR dissociation curves) was 0.05 s⁻¹. For the same molecule, the “Selectivity for Tyr, Tyr/Phe” value [7, 10] was 9.82, the “Selectivity for Tyr, Tyr/Trp” value [7, 10] was 12.91 and the “Selectivity for Tyr, Tyr/Tyr” value [7, 10] was 1.0. The Kd ([7]; steady state, peptide on surface, 0 to 50 μM protein, read-out: KD Tyr) was 36.1 ± 4.4 µM, the “dissociation rate slowed over wild-type, Phe” value ([8]; SPR) was 27.9 fold and the “specificity between N-terminal Phe and Trp, in words” value [8] was “more specific for Phe over Trp than the wild-type protein”. For the same molecule, the “specificity between N-terminal Phe and Trp, in words” value ([8]; listed as CysProSer variant) was “selectively bound to Trp over Phe”, the “KOFF Phe” value ([8]; from SPR dissociation curves) was 0.03 s⁻¹ and the “affinity for N-terminal Phe relative to wild-type, in words” value ([8]; in vitro surface binding assays) was “greater affinity”. The “Selectivity for Phe, Phe/Phe” value [8, 10] was 1.0, the “Selectivity for Phe, Phe/Trp” value [8, 10] was 1.32 and the “Selectivity for Phe, Phe/Tyr” value [8, 10] was 0.10. For the same molecule, the Kd ([8]; steady state, peptide on surface, 0 to 50 μM protein, read-out: KD Phe) was 3.7 ± 0.3 µM, the “decrease in KD for W1G2 peptide compared to wild-type” value [9] was 6.6 fold and the “dissociation rate slowed over wild-type, Trp” value [9] was 51.3 fold.
